This is an account of results in patent US20240115497A1, “INHALABLE PHARMACEUTICAL POWDER FORMULATION AND PREPARATION METHOD THEREFOR” (ZHEJIANG CUIZE PHARMACEUTICAL TECHNOLOGY CO., LTD., priority 2021, published 2024).

The nature of data set [1]: Specific surface area by inverse gas chromatography-surface energy analyzer. It is filed as physicochemical. The text has this: The specific surface areas of the bulk drug semaglutide, excipient leucine and powder formulation were respectively detected by an inverse gas chromatography-surface energy analyzer.
For data set [2] the following is noted: injectable and oral formulations; cited from earlier work.

Take `CC(C)C[C@H](N)C(=O)O` [Excipient leucine, leucine]: the Specific surface area in data set [1] was 0.506 m^2/g.
Regarding Semaglutide [Bulk drug semaglutide], in data set [1], the Specific surface area worked out at 1.816 m^2/g. Besides, the bioavailability result in data set [2] was “about 1%”.
